Laboratory results taken from article PMC4239081, “Differential Interaction Kinetics of a Bipolar Structure-Specific Endonuclease with DNA Flaps Revealed by Single-Molecule Imaging”.

What was measured:
PCNA (Pyrococcus abyssi) = PCNA (Pyrococcus abyssi) (UniProt Q9UYX8); conditions: cited from earlier work
NucS (PabNucS) [1] = target: T1, NucS (PabNucS) (Pyrococcus abyssi, UniProt Q9V2E8 1-251); assay: single-molecule TIRF (koff/kon); 150 mM NaCl, 23 C, no divalent cations; koff 0.076 s-1; Imaging buffer B2: 20 mM HEPES, 150 mM NaCl (or 50 mM), 0.1 mg/ml casein Blocking Reagent; pH not given; 23 C without divalent cations, or 45 C with or without; conditions: protein: recombinant; tags: Alexa488 label; chain copies: 2; label: Alexa488 on F3D47; 3' flap of 20 nt at ss/dsDNA junction; three strands
T1 sequence: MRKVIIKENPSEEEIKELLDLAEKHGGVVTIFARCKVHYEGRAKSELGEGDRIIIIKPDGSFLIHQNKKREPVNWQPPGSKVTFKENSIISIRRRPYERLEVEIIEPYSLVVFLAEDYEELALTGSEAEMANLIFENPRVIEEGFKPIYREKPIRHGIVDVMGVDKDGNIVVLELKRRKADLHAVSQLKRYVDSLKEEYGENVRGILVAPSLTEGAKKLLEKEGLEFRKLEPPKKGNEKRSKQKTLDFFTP

NucS (PabNucS) [2] = target: T1, NucS (PabNucS); assay: single-molecule TIRF (koff/kon); 50 mM NaCl, 23 C, no divalent cations; koff 0.52 s-1; Imaging buffer B2: 20 mM HEPES, 150 mM NaCl (or 50 mM), 0.1 mg/ml casein Blocking Reagent; pH not given; 23 C without divalent cations, or 45 C with or without; conditions: protein: recombinant; tags: Alexa488 label; chain copies: 2; label: Alexa488 on F3D47; 3' flap of 20 nt at ss/dsDNA junction; three strands
NucS (PabNucS) [3] = target: T1, NucS (PabNucS); assay: single-molecule TIRF; 150 mM NaCl, 23 C; kon 0.04e6 M-1s-1, no significant binding; Imaging buffer B2: 20 mM HEPES, 150 mM NaCl (or 50 mM), 0.1 mg/ml casein Blocking Reagent; pH not given; 23 C without divalent cations, or 45 C with or without; conditions: protein: recombinant; tags: Alexa488 label; chain copies: 2; duplex; strands as printed not perfectly complementary
NucS (PabNucS) [4] = target: T1, NucS (PabNucS); assay: single-molecule TIRF (koff/kon); 150 mM NaCl, 23 C, no divalent cations; koff 0.026 s-1; Imaging buffer B2: 20 mM HEPES, 150 mM NaCl (or 50 mM), 0.1 mg/ml casein Blocking Reagent; pH not given; 23 C without divalent cations, or 45 C with or without; conditions: protein: recombinant; tags: Alexa488 label; chain copies: 2; label: Alexa488 on F5D42; 5' flap of 20 nt at ss/dsDNA junction; three strands; D27 as printed has a mismatch to 49N
NucS (PabNucS) [5] = target: T1, NucS (PabNucS); assay: single-molecule TIRF (koff/kon); 50 mM NaCl, 23 C, no divalent cations; koff 0.35 s-1; Imaging buffer B2: 20 mM HEPES, 150 mM NaCl (or 50 mM), 0.1 mg/ml casein Blocking Reagent; pH not given; 23 C without divalent cations, or 45 C with or without; conditions: protein: recombinant; tags: Alexa488 label; chain copies: 2; label: Alexa488 on F5D42; 5' flap of 20 nt at ss/dsDNA junction; three strands; D27 as printed has a mismatch to 49N
[6] = target: T2, NucS (PabNucS);PCNA (PabPCNA) (Pyrococcus abyssi;Pyrococcus abyssi, UniProt Q9V2E8;Q9UYX8 1-251;1-249, |); assay: single-molecule TIRF (koff/kon); 45 C, PCNA, 5 mM MnCl2 (cleaving); koff 0.67 s-1; Imaging buffer B2: 20 mM HEPES, 150 mM NaCl (or 50 mM), 0.1 mg/ml casein Blocking Reagent; pH not given; 23 C without divalent cations, or 45 C with or without; conditions: protein: recombinant;recombinant; tags: Alexa488 label;; chain copies: 2;3; label: Alexa488 on F5D42; 5' flap of 20 nt; three strands; D27 as printed has a mismatch to 49N
T2 sequence 1: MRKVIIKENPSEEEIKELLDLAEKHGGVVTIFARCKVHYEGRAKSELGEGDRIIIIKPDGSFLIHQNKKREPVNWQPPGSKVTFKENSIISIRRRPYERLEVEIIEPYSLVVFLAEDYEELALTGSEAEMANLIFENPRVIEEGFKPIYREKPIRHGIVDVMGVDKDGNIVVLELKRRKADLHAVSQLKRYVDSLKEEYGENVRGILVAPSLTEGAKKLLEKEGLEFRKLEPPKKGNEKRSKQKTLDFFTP
T2 sequence 2: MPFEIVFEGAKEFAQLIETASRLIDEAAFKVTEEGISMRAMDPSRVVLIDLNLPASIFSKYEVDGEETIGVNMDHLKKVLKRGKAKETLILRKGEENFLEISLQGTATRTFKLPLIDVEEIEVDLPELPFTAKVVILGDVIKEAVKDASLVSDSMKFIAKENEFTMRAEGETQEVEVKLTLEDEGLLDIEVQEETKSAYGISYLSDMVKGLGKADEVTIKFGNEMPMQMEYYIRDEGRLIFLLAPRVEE

NucS (PabNucS) [7] = target: T1, NucS (PabNucS); assay: single-molecule TIRF (koff/kon); 45 C, no Mn2+, no PCNA; koff 0.50 s-1; Imaging buffer B2: 20 mM HEPES, 150 mM NaCl (or 50 mM), 0.1 mg/ml casein Blocking Reagent; pH not given; 23 C without divalent cations, or 45 C with or without; conditions: protein: recombinant; tags: Alexa488 label; chain copies: 2; label: Alexa488 on F5D42; 5' flap of 20 nt; three strands; D27 as printed has a mismatch to 49N
[8] = target: T2, NucS (PabNucS);PCNA (PabPCNA); assay: single-molecule TIRF (koff/kon); 45 C, PCNA, no Mn2+; koff 0.90 s-1; Imaging buffer B2: 20 mM HEPES, 150 mM NaCl (or 50 mM), 0.1 mg/ml casein Blocking Reagent; pH not given; 23 C without divalent cations, or 45 C with or without; conditions: protein: recombinant;recombinant; tags: Alexa488 label;; chain copies: 2;3; label: Alexa488 on F5D42; 5' flap of 20 nt; three strands; D27 as printed has a mismatch to 49N
[9] = target: T2, NucS (PabNucS);PCNA (PabPCNA); assay: single-molecule TIRF (koff/kon); 45 C, 50 nM PCNA, no Mn2+; koff 0.55 s-1; Imaging buffer B2: 20 mM HEPES, 150 mM NaCl (or 50 mM), 0.1 mg/ml casein Blocking Reagent; pH not given; 23 C without divalent cations, or 45 C with or without; conditions: protein: recombinant;recombinant; tags: Alexa488 label;; chain copies: 2;3; label: Alexa488 on F3D47; 3' flap of 20 nt; three strands
[10] = target: T2, NucS (PabNucS);PCNA (PabPCNA); assay: single-molecule TIRF (koff/kon); 45 C, PCNA, 5 mM MnCl2 (cleaving); koff 0.85 s-1; Imaging buffer B2: 20 mM HEPES, 150 mM NaCl (or 50 mM), 0.1 mg/ml casein Blocking Reagent; pH not given; 23 C without divalent cations, or 45 C with or without; conditions: protein: recombinant;recombinant; tags: Alexa488 label;; chain copies: 2;3; label: Alexa488 on F3D47; 3' flap of 20 nt; three strands
NucS (PabNucS) [11] = target: T1, NucS (PabNucS); assay: single-molecule TIRF (koff/kon); 45 C, no Mn2+, no PCNA; koff 0.027 s-1; Imaging buffer B2: 20 mM HEPES, 150 mM NaCl (or 50 mM), 0.1 mg/ml casein Blocking Reagent; pH not given; 23 C without divalent cations, or 45 C with or without; conditions: protein: recombinant; tags: Alexa488 label; chain copies: 2; label: Alexa488 on F3D47; 3' flap of 20 nt; three strands

In the case of NucS (from UniProt Q9V2E8), the Kd (PCNA (Pyrococcus abyssi)) is listed as 15 nM.

B1: 3'-flap (49N/F3D47/D22) (structured_DNA)
DNA 1: AGCTACCATGCCTGCACGAATTAAGCAATTCGTAATCATGGTCATAGCT
DNA 2: AGCTATGACCATGATTACGAATTGCTTGGAATCCTGACGAACTGTAG
DNA 3: AATTCGTGCAGGCATGGTAGCT
modifications: biotin (two at each end of 49N)
In the case of B1, the Kd (NucS (PabNucS) [1]) is reported as 7.8 ± 0.3 nM and the Kd (NucS (PabNucS) [2]) is reported as 17.7 ± 0.4 nM.

B2: dsDNA (40N/40NC) (dsDNA)
DNA 1: CCTGCACGAATTAAGCAATTCGATATCATGGTCATAGCT
DNA 2: AGCTATGACCATGATTACGAATTGCTTAATTCGTGCAGG
modifications: biotin? (immobilized)
B2: no binding (NucS (PabNucS) [3]).

B3: 5'-flap (49N/F5D42/D27) (structured_DNA)
DNA 1: AGCTACCATGCCTGCACGAATTAAGCAATTCGTAATCATGGTCATAGCT
DNA 2: GATGTCAAGCAGTCCTAAGGAATTCGTGCAGGCATGGTAGCT
DNA 3: AGCTATGATCATGATTACGAATTGCTT
modifications: biotin (two at each end of 49N)
For B3, the Kd (NucS (PabNucS) [4]) was 2.6 ± 0.2 nM and the Kd (NucS (PabNucS) [5]) was 9.4 ± 0.4 nM.

B4: 5'-flap, one biotin (45 C) (structured_DNA)
DNA 1: AGCTACCATGCCTGCACGAATTAAGCAATTCGTAATCATGGTCATAGCT
DNA 2: GATGTCAAGCAGTCCTAAGGAATTCGTGCAGGCATGGTAGCT
DNA 3: AGCTATGATCATGATTACGAATTGCTT
modifications: one biotin at the extremity
In the case of B4, the Kd [6] is reported as 145 ± 15 nM, the Kd (NucS (PabNucS) [7]) is reported as 625 ± 470 nM and the Kd [8] is reported as 195 ± 20 nM.

B5: 3'-flap, one biotin (45 C) (structured_DNA)
DNA 1: AGCTACCATGCCTGCACGAATTAAGCAATTCGTAATCATGGTCATAGCT
DNA 2: AGCTATGACCATGATTACGAATTGCTTGGAATCCTGACGAACTGTAG
DNA 3: AATTCGTGCAGGCATGGTAGCT
modifications: one biotin at the extremity
B5 showed a Kd [9] of 161 ± 29 nM, a Kd [10] of 250 ± 47 nM and a Kd (NucS (PabNucS) [11]) of 12 ± 3 nM.
